Source: the RNAGym collection of RNA variant scans (doi:10.1093/molbev/msab373)

B1: Azoarcus group I ribozyme (parent)
chain: GUGCCUUGCGCCGGGAAACCACGCAAGGGAUGGUGUCAAAUUCGGCGAAACCUAAGCGCCCGCCCGGGCGUAUGGCAACGCCGAGCCAAGCUUCGGCGCCUGCGCCGAUGAAGGUGUAGAGACUAGACGGCACCCACCUAAGGCAAACGCUAUGGUGAAGGCAUAGUCCAGGGAGUGGCGAAAGUCACACAAACCGG

Variants of: B1
Assay: reverse-splicing fitness (ratio to wild type); higher = more active; in vitro selection; Mg2+ level not given
How it was run: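 An in vitro group I ribozyme library with randomized positions was T7-transcribed and gel-purified. In triplicate, 10 pmol RNA in EPPS pH 7.5 was reacted with 50 pmoles of a 30-nt RNA substrate for 1 h at 37 °C across several added MgCl2 levels (1–48 mM), then stopped with EDTA. Products were reverse transcribed from a substrate-complementary primer, PCR-amplified and sequenced (HiSeq 4000). Fitness is a variant's read proportion after selection over that before, normalised to wild type.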

| Variant | reverse-splicing fitness |
| --- | --- |
| GUGCCUUGCGCCGGGAAACCACGCAAGGGAUGGUGUCAAAUUCGGCGAAACCUAAGCGCCCGCCCGGGCGUAUGGCAACGCAGAGCCAAGCUUCGGCGCCUGCGCCGAUGAAGGUGUAGGGACUAGACGGCACCCACCUAAGGCGAACGCUAUGGUGAAGGCAUAGUCGAGGGAGUGGCGAAAGUCACACAAACCGG [C82A A120G A145G C169G] | 0.0223 |
| GUGCCUUGCGCCGGGAAACCACGCAAGGGAUGGUGUCAAAUUCGGCGAAACCUAAGCGCCCGCCCGGGCGUAUGGCAACGCAGAGCCAAGCUUCGGCGCCUGCGCCGAUGAAGGUGUAGGGACUAGACGGCACCCACCUAAGGCGAACGCUAUGGUGAAGGCAUAGUCUAGGGAGUGGCGAAAGUCACACAAACCGG [C82A A120G A145G C169U] | 0.0148 |
| GUGCCUUGCGCCGGGAAACCACGCAAGGGAUGGUGUCAAAUUCGGCGAAACCUAAGCGCCCGCCCGGGCGUAUGGCAACGCAGAGCCAAGCUUCGGCGCCUGCGCCGAUGAAGGUGUAGGGACUAGACGGCACCCACCUAAGGCUAACGAUAUGGUGAAGGCAUAGUCUAGGGAGUGGCGAAAGUCACACAAACCGG [C82A A120G A145U C150A C169U] | 0.0066 |
| GUGCCUUGCGCCGGGAAACCACGCAAGGGAUGGUGUCAAAUUCGGCGAAACCUAAGCGCCCGCCCGGGCGUAUGGCAACGCAGAGCCAAGCUUCGGCGCCUGCGCCGAUGAAGGUGUAGGGACUAGACGGCACCCACCUAAGGCUAACGAUAUGGUGAAGGCAUAGUCAAGGGAGUGGCGAAAGUCACACAAACCGG [C82A A120G A145U C150A C169A] | 0.00876 |
| GUGCCUUGCGCCGGGAAACCACGCAAGGGAUGGUGUCAAAUUCGGCGAAACCUAAGCGCCCGCCCGGGCGUAUGGCAACGCAGAGCCAAGCUUCGGCGCCUGCGCCGAUGAAGGUGUAGGGACUAGACGGCACCCACCUAAGGCUAACGAUAUGGUGAAGGCAUAGUCGAGGGAGUGGCGAAAGUCACACAAACCGG [C82A A120G A145U C150A C169G] | 0.00799 |
| GUGCCUUGCGCCGGGAAACCACGCAAGGGAUGGUGUCAAAUUCGGCGAAACCUAAGCGCCCGCCCGGGCGUAUGGCAACGCAGAGCCAAGCUUCGGCGCCUGCGCCGAUGAAGGUGUAGGGACUAGACGGCACCCACCUAAGGCGAACGCUAUGGUGAAGGCAUAGUCGAGGGAGAGGCGAAAGUCACACAAACCGG [C82A A120G A145G C169G U176A] | 0.0223 |
| GUGCCUUGCGCCGGGAAACCACGCAAGGGAUGGUGUCAAAUUCGGCGAAACCUAAGCGCCCGCCCGGGCGUAUGGCAACGCAGAGCCAAGCUUCGGCGCCUGCGCCGAUGAAGGUGUAGGGACUAGACGGCACCCACCUAAGGCGAACGCUAUGGUGAAGGCAUAGUCGAGGGAGGGGCGAAAGUCACACAAACCGG [C82A A120G A145G C169G U176G] | 0.00359 |
| GUGCCUUGCGCCGGGAAACCACGCAAGGGAUGGUGUCAAAUUCGGCGAAACCUAAGCGCCCGCCCGGGCGUAUGGCAACGCAGAGCCAAGCUUCGGCGCCUGCGCCGAUGAAGGUGUAGGGACUAGACGGCACCCACCUAAGGCGAACGCUAUGGUGAAGGCAUAGUCGAGGGAGCGGCGAAAGUCACACAAACCGG [C82A A120G A145G C169G U176C] | 0.032 |
| GUGCCUUGCGCCGGGAAACCACGCAAGGGAUGGUGUCAAAUUCGGCGAAACCUAAGCGCCCGCCCGGGCGUAUGGCAACGCAGAGCCAAGCUUCGGCGCCUGCGCCGAUGAAGGUGUAGGGACUAGACGGCACCCACCUAAGGCGAACGCUAUGGUGAAGGCAUAGUCUAGGGAGAGGCGAAAGUCACACAAACCGG [C82A A120G A145G C169U U176A] | 0.022 |
| GUGCCUUGCGCCGGGAAACCACGCAAGGGAUGGUGUCAAAUUCGGCGAAACCUAAGCGCCCGCCCGGGCGUAUGGCAACGCAGAGCCAAGCUUCGGCGCCUGCGCCGAUGAAGGUGUAGGGACUAGACGGCACCCACCUAAGGCGAACGCUAUGGUGAAGGCAUAGUCUAGGGAGCGGCGAAAGUCACACAAACCGG [C82A A120G A145G C169U U176C] | 0.0195 |
| GUGCCUUGCGCCGGGAAACCACGCAAGGGAUGGUGUCAAAUUCGGCGAAACCUAAGCGCCCGCCCGGGCGUAUGGCAACGCAGAGCCAAGCUUCGGCGCCUGCGCCGAUGAAGGUGUAGGGACUAGACGGCACCCACCUAAGGCGAACGCUAUGGUGAAGGCAUAGUCUAGGGAGGGGCGAAAGUCACACAAACCGG [C82A A120G A145G C169U U176G] | 0.0046 |
| GUGCCUUGCGCCGGGAAACCACGCAAGGGAUGGUGUCAAAUUCGGCGAAACCUAAGCGCCCGCCCGGGCGUAUGGCAACGCAGAGCCAAGCUUCGGCGCCUGCGCCGAUGAAGGUGUAGGGACUAGACGGCACCCACCUAAGGCUAACGAUAUGGUGAAGGCAUAGUCAAGGGAGCGGCGAAAGUCACACAAACCGG [C82A A120G A145U C150A C169A U176C] | 0.0115 |
| GUGCCUUGCGCCGGGAAACCACGCAAGGGAUGGUGUCAAAUUCGGCGAAACCUAAGCGCCCGCCCGGGCGUAUGGCAACGCAGAGCCAAGCUUCGGCGCCUGCGCCGAUGAAGGUGUAGGGACUAGACGGCACCCACCUAAGGCUAACGAUAUGGUGAAGGCAUAGUCAAGGGAGGGGCGAAAGUCACACAAACCGG [C82A A120G A145U C150A C169A U176G] | 0.00386 |
| GUGCCUUGCGCCGGGAAACCACGCAAGGGAUGGUGUCAAAUUCGGCGAAACCUAAGCGCCCGCCCGGGCGUAUGGCAACGCAGAGCCAAGCUUCGGCGCCUGCGCCGAUGAAGGUGUAGGGACUAGACGGCACCCACCUAAGGCUAACGAUAUGGUGAAGGCAUAGUCAAGGGAGAGGCGAAAGUCACACAAACCGG [C82A A120G A145U C150A C169A U176A] | 0.0132 |
| GUGCCUUGCGCCGGGAAACCACGCAAGGGAUGGUGUCAAAUUCGGCGAAACCUAAGCGCCCGCCCGGGCGUAUGGCAACGCAGAGCCAAGCUUCGGCGCCUGCGCCGAUGAAGGUGUAGGGACUAGACGGCACCCACCUAAGGCUAACGAUAUGGUGAAGGCAUAGUCGAGGGAGAGGCGAAAGUCACACAAACCGG [C82A A120G A145U C150A C169G U176A] | 0.0133 |
